Reference: PMC9835228 (Journal of Translational Medicine, 2023)

What was measured:
[1] = system: SK-BR-3 tumors (HER2-positive); experiment: Small-animal nanoScan SPECT/CT imaging in the SK-BR-3 tumor model; format: in vivo, female NOD SCID mice
Protocol: At 0.5, 1 and 2 h p.i., the mice were anesthetized by inhalation of 2% isoflurane and imaged using a nanoScan SPECT/CT system (Mediso Inc., Hungary) following a standard protocol. Briefly, the small-animal SPECT images were acquired with the technetium-99 m parameters (peak 140 keV with 20% width, frame time 25 s), and CT images were acquired with default settings (50 kVp, 0.67 mA, and rotation 210°, exposure time 300 ms). All SPECT/CT images were reconstructed and further analyzed by Fusion software (Mediso Inc., Hungary), including drawing volumes of interest on tumors and major organs as well as calculating the tumor uptake (%ID/cc) accordingly. […] Small-animal imaging of the monomer tracer ^99mTc-HP-rk was also conducted as a control.

[2] = Dosimetry estimation (OLINDA/EXM); set-up: species or system human; settings: for effective radiation dose to the body: 11.1 MBq/kg
Protocol: The dosimetry calculation was performed according to the European Association of Nuclear Medicine Dosimetry Guidance and calculated using OLINDA/EXM (version 1.1; Vanderbilt University). The radiation effective dose (mSv/MBq) of the main organs of the human body was estimated from the biodistribution data of the SK-BR-3 tumor models (Additional file 1: Table S1).
The radiation effective dose (mSv/MBq) of the main organs of the human body was estimated from the biodistribution data of the SK-BR-3 tumor model (Table S1).

[3] = radio-HPLC (Fig. 1B)
[4] = system: SK-BR-3 tumor (HER2-positive); settings: 0.5, 1 and 2 h p.i.; 0.37 MBq i.v.; 4 mice/group
Protocol: (§1) The animals were randomly chosen for in vivo assays when the tumor size reached 100–150 mm^3 (1–2 weeks after inoculation).
(§2) Each mouse was injected with 0.37 MBq (~ 0.03 µg) of tracer to evaluate the distribution of the probe in tumors and major organs (4 mice/group). The mice were sacrificed and dissected at 0.5, 1 and 2 h p.i. Blood, tumor, liver, kidney and other major organs were collected and weighed, and their radioactivity was counted in a Wallac 1480 γ-counter (Perkin-Elmer, Waltham, MA). […] All biodistribution data are presented as the percentage of injected dose per gram of tissue (%ID/g).

[5] = system: HER2 expression in breast tumors
Protocol: (§3) The wrist or elbow on the same side as the healthy breast was selected for injection. […] On PET images, the volumes of interest (VOIs) were drawn over tumors using a 40% threshold, and the software automatically obtained the radioactivity concentration and the maximum and the mean standardized uptake values (SUVmax and SUVmean, respectively). T/B ratios were calculated from SUVmean values for further analysis. The contralateral breast tissue was considered the background for calculations. For semiquantitative analyses of SPECT images, the same VOI method as above was adopted to obtain the maximum and the average count values (Countsmax and Countsavg, respectively) of the breast tumors. The Countsavg value was compared between the tumor region and the contralateral region to obtain the T/B ratio. Calculations were performed using SPSS 23.0 software (IBM SPSS, Chicago, IL, USA) and GraphPad Prism 8 (GraphPad Software, San Diego, CA 92,108). After surgery, HER2 expression status was evaluated by IHC in tumor pathological sections of all 34 patients. For patients with an IHC score of HER2 (2 +), FISH was further performed.
(§4) Quantitative data were expressed as the mean ± SD. Statistical analysis of image parameters and biodistribution was performed with Student’s t test in Prism 7.0 (GraphPad Software, Inc., USA). P < 0.05 was considered statistically significant. Correlation analysis of the SUV data of clinical images and the IHC results was performed with SPSS Statistics 23.0 software (IBM SPSS, USA). The correlation between the SPECT T/B ratio and HER2 status was evaluated by Wilcoxon’s rank sum test. Spearman’s rank correlation analysis was performed on the SPECT T/B ratio and the immunoreactivity score. ROC curve analysis was performed to determine an optimal cutoff value for detecting HER2-positive (2 + , 3 +) breast cancer and to compare the diagnostic performance of different methods.

[6] = 1.85 MBq i.v., blood 1-240 min p.i., γ-counter, seven mice, fitted in Prism 7.0
Protocol: Blood was drawn through the orbit of the mouse at 1, 3, 8, 15, 30, 60, 90, 120, 180, and 240 min p.i. The radioactivity was counted in a γ-counter, and the percentage injected dose per gram of blood (%ID/g) at each time point was calculated. The slow half-life and fast half-life were analyzed and calculated by Prism 7.0.

[7] = 74 MBq i.v., n = 5
Protocol: Ten 4-week-old female ICR mice were randomly divided into the experimental and control groups. The mice were numbered, weighed and photographed. […] The mice in the control group were injected with the same volume of saline. After 120 h, the mice were photographed again, their body weight was recorded, and the behavioral differences were observed. After the mice were sacrificed, they were dissected to observe the morphological differences in the organs.

in vivo [8] = settings: female, NOD SCID, mouse, tumor (SK-BR-3 xenograft), iv, 0.37 MBq, total radioactivity
Protocol: as §1, §2

in vivo [9] = settings: female, NOD SCID, mouse, tumor (MCF7 xenograft), 0.37 MBq, total radioactivity
Protocol: as §1, §2

in vivo [10] = settings: female, NOD SCID, mouse, tumor (MDA-MB-468 xenograft), 0.37 MBq, total radioactivity
Protocol: as §1, §2

clinical = settings: female, human, in vivo, iv, 11.1 MBq per kilogram body weight, total radioactivity, mean ± SD
Protocol: as §3, §4

[11] = In vivo metabolic stability (urine, radio-HPLC); settings: ~37 MBq i.v., mouse urine collected p.i. (2 h, b63; 0.5 h for ^99mTc-H10F in Fig. S3)
[12] = Female, OLINDA/EXM 1.1, from mouse SK-BR-3 biodistribution
[13] = Male, OLINDA/EXM 1.1, from mouse SK-BR-3 biodistribution

SMILES: CC(C)C[C@@H](NC(=O)[C@@H](CCCNC(=N)N)NC(=O)[C@@H](CC(C)C)NC(=O)[C@@H](CCC(=O)O)NC(=O)[C@@H](Cc1c[nH]c2ccccc12)NC(=O)[C@@H](CC(N)=O)NC(=O)[C@@H](CCCNC(=N)N)NC(=O)CCCCCCCNC(=O)CC[C@H](NC(=O)CCOCCOCCOCCOCCNC(=O)c1ccc(NN=Cc2ccccc2S(=O)(=O)O)nc1)C(=O)NCCCCCCCC(=O)N[C@H](CCCNC(=N)N)C(=O)N[C@H](CC(N)=O)C(=O)N[C@H](Cc1c[nH]c2ccccc12)C(=O)N[C@H](CCC(=O)O)C(=O)N[C@H](CC(C)C)C(=O)N[C@H](CCCNC(=N)N)C(=O)N[C@H](CC(C)C)C(=O)N[C@H](CCCCN)C(=O)O)C(=O)N[C@H](CCCCN)C(=O)O [^99mTc-HP-Ark2, metal not drawn]
- imaging intensity in tumors compared with monomer tracer ([1]; SK-BR-3 model, 0.5 h p.i.): stronger than that of ^99mTc-HP-rk
- tumor uptake on imaging with coinjected cold rk peptide ([1]; blocking dose 25 mg/kg rk, 0.5 h p.i.): significantly blocked tumor uptake
- tumor uptake on imaging with coinjected cold trastuzumab ([1]; blocking dose 30 mg/kg trastuzumab, 0.5 h p.i.): did not block tumor uptake
- tumor visualization by SPECT/CT ([1]; ~37 MBq i.v., 0.5, 1 and 2 h p.i., subcutaneous or in situ, tumors as small as ~20 mm^3): clearly visualized
- effective radiation dose to the body ([2]; 50 kg females): ~5.72 mSv
- effective radiation dose to the body ([2]; 65 kg males): approximately 6.62 mSv
- Effective Dose Equivalent, Adrenals [2, 12]: 5.36E-04 mSv/MBq
- Effective Dose Equivalent, Brain [2, 12]: 0.00E+00 mSv/MBq
- Effective Dose Equivalent, Breasts [2, 12]: 4.44E-05 mSv/MBq
- Effective Dose Equivalent, Gallbladder Wall [2, 12]: 2.60E-04 mSv/MBq
- Effective Dose Equivalent, Heart Wall [2, 12]: 0.00E+00 mSv/MBq
- Effective Dose Equivalent, Kidneys [2, 12]: 7.87E-03 mSv/MBq
- Effective Dose Equivalent, LLI Wall [2, 12]: 0.00E+00 mSv/MBq
- Effective Dose Equivalent, Liver [2, 12]: 0.00E+00 mSv/MBq
- Effective Dose Equivalent, Lungs [2, 12]: 1.90E-04 mSv/MBq
- Effective Dose Equivalent, Muscle [2, 12]: 0.00E+00 mSv/MBq
- Effective Dose Equivalent, Osteogenic Cells [2, 12]: 6.07E-05 mSv/MBq
- Effective Dose Equivalent, Ovaries [2, 12]: 2.49E-04 mSv/MBq
- Effective Dose Equivalent, Pancreas [2, 12]: 3.43E-04 mSv/MBq
- Effective Dose Equivalent, Red Marrow [2, 12]: 2.27E-04 mSv/MBq
- Effective Dose Equivalent, Skin [2, 12]: 0.00E+00 mSv/MBq
- Effective Dose Equivalent, Small Intestine [2, 12]: 0.00E+00 mSv/MBq
- Effective Dose Equivalent, Spleen [2, 12]: 4.89E-04 mSv/MBq
- Effective Dose Equivalent, Stomach Wall [2, 12]: 0.00E+00 mSv/MBq
- Effective Dose Equivalent, Thymus [2, 12]: 0.00E+00 mSv/MBq
- Effective Dose Equivalent, Thyroid [2, 12]: 2.78E-06 mSv/MBq
- Effective Dose Equivalent, ULI Wall [2, 12]: 0.00E+00 mSv/MBq
- Effective Dose Equivalent, Urinary Bladder Wall [2, 12]: 0.00E+00 mSv/MBq
- Effective Dose Equivalent, Uterus [2, 12]: 0.00E+00 mSv/MBq
- Effective Dose Equivalent, Adrenals [2, 13]: 4.04E-04 mSv/MBq
- Effective Dose Equivalent, Brain [2, 13]: 0.00E+00 mSv/MBq
- Effective Dose Equivalent, Breasts [2, 13]: 3.64E-05 mSv/MBq
- Effective Dose Equivalent, Gallbladder Wall [2, 13]: 2.31E-04 mSv/MBq
- Effective Dose Equivalent, Heart Wall [2, 13]: 0.00E+00 mSv/MBq
- Effective Dose Equivalent, Kidneys [2, 13]: 7.26E-03 mSv/MBq
- Effective Dose Equivalent, LLI Wall [2, 13]: 0.00E+00 mSv/MBq
- Effective Dose Equivalent, Liver [2, 13]: 0.00E+00 mSv/MBq
- Effective Dose Equivalent, Lungs [2, 13]: 1.38E-04 mSv/MBq
- Effective Dose Equivalent, Muscle [2, 13]: 0.00E+00 mSv/MBq
- Effective Dose Equivalent, Osteogenic Cells [2, 13]: 4.73E-05 mSv/MBq
- Effective Dose Equivalent, Pancreas [2, 13]: 2.81E-04 mSv/MBq
- Effective Dose Equivalent, Red Marrow [2, 13]: 1.94E-04 mSv/MBq
- Effective Dose Equivalent, Skin [2, 13]: 0.00E+00 mSv/MBq
- Effective Dose Equivalent, Small Intestine [2, 13]: 0.00E+00 mSv/MBq
- Effective Dose Equivalent, Spleen [2, 13]: 3.96E-04 mSv/MBq
- Effective Dose Equivalent, Stomach Wall [2, 13]: 0.00E+00 mSv/MBq
- Effective Dose Equivalent, Testes [2, 13]: 0.00E+00 mSv/MBq
- Effective Dose Equivalent, Thymus [2, 13]: 0.00E+00 mSv/MBq
- Effective Dose Equivalent, Thyroid [2, 13]: 2.27E-06 mSv/MBq
- Effective Dose Equivalent, ULI Wall [2, 13]: 0.00E+00 mSv/MBq
- Effective Dose Equivalent, Urinary Bladder Wall [2, 13]: 0.00E+00 mSv/MBq
- Effective Dose Equivalent, Uterus [2, 13]: 0.00E+00 mSv/MBq
- in vitro stability [3]: excellent in vitro and in vivo stability
- tumor uptake compared with other organs [4]: higher tumor uptake than uptake in other organs (except for kidneys)
- adverse events related to tracer administration ([5]; 34 patients, ~11.1 MBq/kg i.v.): No adverse events
- detection of metastatic lymph nodes ([5]; patients with HER2-positive tumors and ipsilateral lymph node metastases (Nos. 4, 5, 7, 15, 24, 29)): all 6 patients
- kidney uptake in patients ([5]; quantified biodistribution from SPECT/CT, n = 34 (Fig. S10)): high uptake
- fast half-life in blood [6]: 3.12 min
- slow half-life in blood [6]: 32.45 min
- body weight after high-dose injection ([7]; 120 h): did not decrease
- organ morphology after dissection ([7]; 120 h): no abnormal organs
- behavior after high-dose injection ([7]; 120 h after injection): no abnormal behavior
- tissue uptake at 0.5 h (in vivo [8]): 3.99 ± 0.15 %ID/g
- tissue uptake at 0.5 h (in vivo [9]): 1.44 ± 0.08 %ID/g
- tissue uptake at 0.5 h (in vivo [10]): 1.08 ± 0.06 %ID/g
- tissue to tissue ratio at 0.5 h (clinical; T/B ratio of HER2-negative tumors, IHC (2+) plus FISH+ or IHC (3+) criterion, n = 24): 1.54 ± 1.03
- tissue to tissue ratio at 0.5 h (clinical; T/B ratio of HER2-negative tumors, negative = IHC (0/1+), n = 17): 1.16 ± 0.29
- tissue to tissue ratio at 0.5 h (clinical; T/B ratio of HER2-positive tumors, positive = IHC (2+) or (3+), n = 19): 2.49 ± 1.13
- tissue to tissue ratio at 0.5 h (clinical; T/B ratio of HER2-positive tumors, positive = IHC (2+) plus FISH+ or IHC (3+), n = 12): 2.5 ± 0.88
- in vivo metabolic stability [11]: excellent in vitro and in vivo stability
